Assay results reported in US20240383982A1 (Genmab, published 2024).

B1: antibody B7H4-C1 (antibody, V domains shown)
VH: QVQLQQWGAGLLKPSETLSLTCAVYGGSFSGYYWSWIRQPPGKGLEWIGEINHSGSTNYNPSLKSRVTISIDTSKNQFSLKLTSVTAADTAVFYCARGLFNWNFDSWGQGTLVTVSS
VL: DIQMTQSPSSLSASVGDRVTITCRASQGIRNDLGWYQQKPGKAPKRLIYGASSLQSGVPSRFSGSGSGTEFTLTISSLQPEDFATYYCLQHNSYPRTFGQGTTVEIKR
notes: Parent of B7H4-C1-N52S
B2: bsIgG1-huCD3-FEALxB7H4-C2-FEAR (bispecific antibody)
heavy 1: not shown
light 1: not shown
heavy 2: EVQLVQSGAEVKKPGASVKVSCKASGYTFTSYWIGWVRQAPGQGLEWIGDIYPGGGYTNYNEKFKGRVTITRDTSTSTAYLELSSLRSEDTAVYYCARLDGSSYRGAMDSWGQGTLVTVSSASTKGPSVFPLAPSSKSTSGGTAALGCLVKDYFPEPVTVSWNSGALTSGVHTFPAVLQSSGLYSLSSVVTVPSSSLGTQTYICNVNHKPSNTKVDKRVEPKSCDKTHTCPPCPAPEFEGGPSVFLFPPKPKDTLMISRTPEVTCVVVAVSHEDPEVKFNWYVDGVEVHNAKTKPREEQYNSTYRVVSVLTVLHQDWLNGKEYKCKVSNKALPAPIEKTISKAKGQPREPQVYTLPPSREEMTKNQVSLTCLVKGFYPSDIAVEWESNGQPENNYKTTPPVLDSDGSFFLYSRLTVDKSRWQQGNVFSCSVMHEALHNHYTQKSLSLSPGK
light 2: DIQMTQSPSSLSASVGDRVTITCKASQGFNKYVAWYQQKPGKAPKLLIYYTSTLQPGVPSRFSGSGSGRDYTLTISSLQPEDFATYYCLQYGNLLYAFGQGTKVEIKRTVAAPSVFIFPPSDEQLKSGTASVVCLLNNFYPREAKVQWKVDNALQSGNSQESVTEQDSKDSTYSLSSTLTLSKADYEKHKVYACEVTHQGLSSPVTKSFNRGEC
notes: also called bslgG1-huCD3-FEALxB7H4-C2-FEAR
B3: bsIgG1-huCD3-FEALxB7H4-C1-N52S-FEAR (bispecific antibody)
heavy 1: not shown
light 1: not shown
heavy 2: QVQLQQWGAGLLKPSETLSLTCAVYGGSFSGYYWSWIRQPPGKGLEWIGEISHSGSTNYNPSLKSRVTISIDTSKNQFSLKLTSVTAADTAVFYCARGLFNWNFDSWGQGTLVTVSSASTKGPSVFPLAPSSKSTSGGTAALGCLVKDYFPEPVTVSWNSGALTSGVHTFPAVLQSSGLYSLSSVVTVPSSSLGTQTYICNVNHKPSNTKVDKRVEPKSCDKTHTCPPCPAPEFEGGPSVFLFPPKPKDTLMISRTPEVTCVVVAVSHEDPEVKFNWYVDGVEVHNAKTKPREEQYNSTYRVVSVLTVLHQDWLNGKEYKCKVSNKALPAPIEKTISKAKGQPREPQVYTLPPSREEMTKNQVSLTCLVKGFYPSDIAVEWESNGQPENNYKTTPPVLDSDGSFFLYSRLTVDKSRWQQGNVFSCSVMHEALHNHYTQKSLSLSPGK
light 2: DIQMTQSPSSLSASVGDRVTITCRASQGIRNDLGWYQQKPGKAPKRLIYGASSLQSGVPSRFSGSGSGTEFTLTISSLQPEDFATYYCLQHNSYPRTFGQGTTVEIKRTVAAPSVFIFPPSDEQLKSGTASVVCLLNNFYPREAKVQWKVDNALQSGNSQESVTEQDSKDSTYSLSSTLTLSKADYEKHKVYACEVTHQGLSSPVTKSFNRGEC
notes: also called bslgG1-huCD3-FEALxB7H4-C1-N52S-FEAR; CD3xB7H4

What was measured:
[1] = target: T1, human B7H4, full length, on cells (human, UniProt Q7Z7D3 25-282); assay: binding to tumor cells, as CD3 bispecific (monovalent) and IgG1 (bivalent)
T1 construct: Uniprot Q7Z7D3; Used for transfected HEK cells and for the B7H4-expressing human tumor cell lines (endogenous B7H4); also called VTCN1
T1 sequence: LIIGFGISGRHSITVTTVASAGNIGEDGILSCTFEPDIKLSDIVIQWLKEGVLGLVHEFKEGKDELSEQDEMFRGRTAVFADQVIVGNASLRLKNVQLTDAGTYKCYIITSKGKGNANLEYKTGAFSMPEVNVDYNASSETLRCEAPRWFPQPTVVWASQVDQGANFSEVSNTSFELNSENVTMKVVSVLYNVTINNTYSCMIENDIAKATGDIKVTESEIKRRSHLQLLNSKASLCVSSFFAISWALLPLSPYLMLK

[2] = target: T2, B7H3; assay: flow cytometry, transiently transfected HEK cells, MFI as % of IgG1-B7H3-BRCA84D
T2 construct: also called human B7H3
T2 full-length protein on cells: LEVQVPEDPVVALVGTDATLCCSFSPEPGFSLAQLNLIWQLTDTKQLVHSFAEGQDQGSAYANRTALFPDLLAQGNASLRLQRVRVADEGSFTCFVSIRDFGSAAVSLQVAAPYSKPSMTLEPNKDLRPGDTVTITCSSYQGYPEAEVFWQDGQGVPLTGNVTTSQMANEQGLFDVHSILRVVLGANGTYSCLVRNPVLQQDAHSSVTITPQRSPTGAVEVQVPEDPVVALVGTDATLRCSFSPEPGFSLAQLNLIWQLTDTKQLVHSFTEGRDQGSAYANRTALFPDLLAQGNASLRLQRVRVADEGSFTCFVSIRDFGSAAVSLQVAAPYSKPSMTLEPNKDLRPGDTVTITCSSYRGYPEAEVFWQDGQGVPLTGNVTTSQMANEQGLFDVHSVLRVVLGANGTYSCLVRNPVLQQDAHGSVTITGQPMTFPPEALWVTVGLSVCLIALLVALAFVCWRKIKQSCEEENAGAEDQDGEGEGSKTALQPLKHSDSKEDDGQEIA
Procedure: (§1) Expression constructs were prepared encoding human B7H4, human B7H3 (Uniprot accession no. Q5ZPR3-1; SEQ ID NO: 9), or a chimeric molecule containing the IgV domain of B7H3 and the IgC domain of B7H4 (B7H3-IgV/B7H4-IgC; SEQ ID NO: 11), or a chimeric molecule containing the IgV domain of B7H4 and the IgC domain of B7H3 (B7H4-IgV/B7H3-IgC; SEQ ID NO: 10). HEK cells were transiently transfected to express these constructs.
(§2) Cells (3×10⁴ cell/well) were incubated in polystyrene 96-well round-bottom plates (Greiner bio-one, cat. no. 650101) with serial dilutions of antibodies (range 0.0046 to 10 μg/mL in 3-fold dilution steps) in 50 μL PBS/0.1% BSA/0.02% azide (FACS buffer) at 4° C. for 30 min. After washing twice in FACS buffer, cells were incubated with secondary antibody at 4° C. for 30 min. As a secondary antibody, R-Phycoerythrin (PE)-conjugated goat-anti-human IgG F(ab′)₂ (1:500 in staining buffer; Jackson ImmunoResearch Laboratories, Inc., West Grove, PA, cat. no. 109-116-098) was used. Next, cells were washed twice in FACS buffer, re-suspended in 20 μL FACS buffer and analyzed on an iQue Screener (Intellicyt Corporation, USA).

[3] = target: T3, B7H4-IgV/B7H3-IgC; assay: flow cytometry, transiently transfected HEK cells, antibody at 10 µg/mL, MFI as % of the control antibody of the panel [continued) III]
T3 construct: also called chimeric molecule with the IgV domain of B7H4 and the IgC domain of B7H3
T3 full-length chimeric protein on cells: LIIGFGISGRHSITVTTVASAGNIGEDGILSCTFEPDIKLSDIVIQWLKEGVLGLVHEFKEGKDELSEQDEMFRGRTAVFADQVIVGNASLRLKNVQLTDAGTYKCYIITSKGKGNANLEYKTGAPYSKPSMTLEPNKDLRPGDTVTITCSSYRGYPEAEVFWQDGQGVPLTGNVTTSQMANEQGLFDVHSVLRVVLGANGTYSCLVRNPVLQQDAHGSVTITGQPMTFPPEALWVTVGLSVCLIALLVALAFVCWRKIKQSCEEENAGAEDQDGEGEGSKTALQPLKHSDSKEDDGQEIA
Procedure: as §1, §2

[4] = target: T1, human B7H4, full length, on cells; assay: flow cytometry on SK-BR3 tumor cells [panel SK-BR3 cells]
Procedure: Cells (3×10⁴ cells/well) were incubated in polystyrene 96-well round-bottom plates (Greiner bio-one, cat. no. 650180) with serial dilutions of antibodies (ranging from 0.000458 to 30 μg/mL in 4-fold dilution steps) in 100 μL PBS/0.1% BSA/0.02% azide (staining buffer) at 4° C. for 30 min. Experiments were performed in technical duplicate. After washing twice in staining buffer, cells were incubated in 50 μL secondary antibody at 4° C. for 30 min. As a secondary antibody, R-Phycoerythrin (PE)-conjugated goat-anti-human IgG F(ab′)₂ (1:500 in FACS buffer; Jackson ImmunoResearch Laboratories, Inc., West Grove, PA, cat. no. 109-116-098), was used. Cells were washed twice in staining buffer, re-suspended in 30 μL FACS buffer containing Topro-3 (1:10,000 dilution) and analyzed on an iQue Screener (Intellicyt Corporation, USA). Binding curves were analyzed using non-linear regression (sigmoidal dose-response with variable slope) using GraphPad Prism V7.02 software (GraphPad Software, San Diego, CA, USA).
Binding was analyzed by flow cytometry as described above.

[5] = target: T1, human B7H4, full length, on cells; assay: cell-based or functional assay
[6] = target: T4, recombinant hIgG1 Fc-tagged cynomolgus monkey B7H4 (Creative BioMart, cat. no. VTCN1-1517R) (cynomolgus monkey, UniProt Q7Z7D3 25-259 (human entry)); assay: BLI (Octet HTX); Fc-tagged cynomolgus B7H4 coupled to AR2G sensor, bispecific antibody in solution (monovalent B7H4 binding); 1st experiment
T4 construct: Bought protein; also called cynomolgus monkey B7H4 extracellular domain
T4 sequence: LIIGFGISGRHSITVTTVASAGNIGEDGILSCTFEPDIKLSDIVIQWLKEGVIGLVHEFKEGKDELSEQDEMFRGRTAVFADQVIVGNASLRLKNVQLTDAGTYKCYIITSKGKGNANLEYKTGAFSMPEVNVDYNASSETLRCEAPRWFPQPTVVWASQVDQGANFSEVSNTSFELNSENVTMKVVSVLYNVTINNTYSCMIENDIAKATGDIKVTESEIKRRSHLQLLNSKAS
Procedure: In addition, the affinity of for cynomolgus monkey B7H4 was determined by BLI. […] Amine Reactive 2nd Generation (AR2G) biosensors (FortéBio, cat. no. 18-5092) were activated by reaction with 20 mM EDC (N-(3-Dimethylaminopropyl)-N′-ethylcarbodiimide hydrochloride) (FortéBio, cat. no. 18-1033) and 10 mM s-NHS (N-hydroxysulfosuccinimide sodium salt) (FortéBio, cat. no. 18-1067) for 300 s. The activated sensors were loaded with 10 μg/mL recombinant hIgG1 Fc-tagged cynomolgus monkey B7H4 (Creative BioMart, cat. no. VTCN1-1517R) in 10 mM Sodium Acetate pH 4.0 (FortéBio, cat. no. 18-1068) for 600 s and quenched with 1 M ethanolamine pH 8.5 (FortéBio, cat. no. 18-1071) for 300 s. […] A molecular mass of 150 kDa of the antibodies was used for calculations. For each antibody a reference sensor was used, which was incubated with Sample Diluent instead of antibody.
Data were acquired using Data Acquisition Software v9.0.0.49d (FortéBio) and analyzed with Data Analysis Software v9.0.0.12 (FortéBio). Data traces were corrected per antibody by subtraction of the reference sensor. The Y-axis was aligned to the last 10 s of the baseline, Interstep Correction alignment to dissociation and Savitzky-Golay filtering were applied. Data traces with a response<0.05 nm were excluded from analysis. The data was fitted with the 1:1 Global Full fit model using a window of interest for the association and dissociation times set at 100 s and 200 s respectively.

[7] = target: T3, B7H4-IgV/B7H3-IgC; assay: flow cytometry, transiently transfected HEK cells, MFI as % of the control antibody of the panel [continued) III]
Procedure: as §1, §2

| Binder | binding result [1] | binding result [2] | binding result [3] | EC50 (read off the curve) [4] | IC50 of T cell-mediated cytotoxicity, HCC1954 cells, highest of 4 donors [5] | IC50 of T cell-mediated cytotoxicity, HCC1954 cells, lowest of 4 donors [5] | IC50 of T cell-mediated cytotoxicity, MCF7 cells, highest of 4 donors [5] | IC50 of T cell-mediated cytotoxicity, MCF7 cells, lowest of 4 donors [5] | IC50 of T cell-mediated cytotoxicity, MDA-MB-468 cells, highest of 4 donors [5] | IC50 of T cell-mediated cytotoxicity, MDA-MB-468 cells, lowest of 4 donors [5] | IC50 of T cell-mediated cytotoxicity, OVCAR3 cells, highest of 4 donors [5] | IC50 of T cell-mediated cytotoxicity, OVCAR3 cells, lowest of 4 donors [5] | IC50 of T cell-mediated cytotoxicity, SK-BR3 cells, highest of 4 donors [5] | IC50 of T cell-mediated cytotoxicity, SK-BR3 cells, lowest of 4 donors [5] | Kd [6] | koff [6] | kon [6] | binding result [7] |
| --- | --- | --- | --- | --- | --- | --- | --- | --- | --- | --- | --- | --- | --- | --- | --- | --- | --- | --- |
| B1 | binds | – | – | – | – | – | – | – | – | – | – | – | – | – | – | – | – | – |
| B2 | – | no binding (tested: 10 µg/mL) | binds | – | – | – | – | – | – | – | – | – | – | – | – | – | – | – |
| B3 | – | no binding (tested: 10 µg/mL) | – | ~1000 ng/mL | 8 ng/mL | 1 ng/mL | 25 ng/mL | 12 ng/mL | 4 ng/mL | 1 ng/mL | 12 ng/mL | 3 ng/mL | 16 ng/mL | 2 ng/mL | 21 nM | 0.003 s⁻¹ | 140000 M⁻¹ s⁻¹ | no binding (tested: 10 µg/mL) |
